The labels stand for the following.
B7: Full-length His10-myc-tagged AND-1 (1–1129) (natural protein, human, UniProt O75717 1-1129, looked up)
chain: MPATRKPMRYGHTEGHTEVCFDDSGSFIVTCGSDGDVRIWEDLDDDDPKFINVGEKAYSCALKSGKLVTAVSNNTIQVHTFPEGVPDGILTRFTTNANHVVFNGDGTKIAAGSSDFLVKIVDVMDSSQQKTFRGHDAPVLSLSFDPKDIFLASASCDGSVRVWQISDQTCAISWPLLQKCNDVINAKSICRLAWQPKSGKLLAIPVEKSVKLYRRESWSHQFDLSDNFISQTLNIVTWSPCGQYLAAGSINGLIIVWNVETKDCMERVKHEKGYAICGLAWHPTCGRISYTDAEGNLGLLENVCDPSGKTSSSKVSSRVEKDYNDLFDGDDMSNAGDFLNDNAVEIPSFSKGIINDDEDDEDLMMASGRPRQRSHILEDDENSVDISMLKTGSSLLKEEEEDGQEGSIHNLPLVTSQRPFYDGPMPTPRQKPFQSGSTPLHLTHRFMVWNSIGIIRCYNDEQDNAIDVEFHDTSIHHATHLSNTLNYTIADLSHEAILLACESTDELASKLHCLHFSSWDSSKEWIIDLPQNEDIEAICLGQGWAAAATSALLLRLFTIGGVQKEVFSLAGPVVSMAGHGEQLFIVYHRGTGFDGDQCLGVQLLELGKKKKQILHGDPLPLTRKSYLAWIGFSAEGTPCYVDSEGIVRMLNRGLGNTWTPICNTREHCKGKSDHYWVVGIHENPQQLRCIPCKGSRFPPTLPRPAVAILSFKLPYCQIATEKGQMEEQFWRSVIFHNHLDYLAKNGYEYEESTKNQATKEQQELLMKMLALSCKLEREFRCVELADLMTQNAVNLAIKYASRSRKLILAQKLSELAVEKAAELTATQVEEEEEEEDFRKKLNAGYSNTATEWSQPRFRNQVEEDAEDSGEADDEEKPEIHKPGQNSFSKSTNSSDVSAKSGAVTFSSQGRVNPFKVSASSKEPAMSMNSARSTNILDNMGKSSKKSTALSRTTNNEKSPIIKPLIPKPKPKQASAASYFQKRNSQTNKTEEVKEENLKNVLSETPAICPPQNTENQRPKTGFQMWLEENRSNILSDNPDFSDEADIIKEGMIRFRVLSTEERKVWANKAKGETASEGTEAKKRKRVVDESDETENQEEKAKENLNLSKKQKPLDFSTNQKLSAFAFKQE
notes: the oligomeric state was measured only on the SepB constructs; also called His-myc-AND-1; human CTF4-orthologue AND-1; source: Sf9 insect cells (baculovirus, MultiBac), purified (Ni-NTA, Q-Sepharose)

The target of series [1] is B7. Nature of the series: pull-down; competition: Pol α/primase bound to 100 µl Strep-Tactin Superflow resin, 1 nmol AND-1 added together with 100 nmol B (1–78) or Pol α CIP peptide 156–170; eluted with 10 mM desthiobiotin; Coomassie and anti-His western blot. Conditions: both partners purified.
Series [2] addresses B7. Nature of the series: pull-down; GST-B fusion proteins (in figure 6a also GST-Pol α CIP, equimolar) bound to 100 µl glutathione agarose, 2.2 nmol AND-1 (1–1129, 316–1129 or 336–826) added as prey; PD buffer, 2.5 mg/ml BSA, 4°C; Coomassie, anti-His western blot in figure 6a. As to conditions: both partners purified.
Series [3] deals with the molecule itself. Nature of the series: SEC-MALS; 100 µl AND-1 336–826 at 2–4 mg/ml on Superdex S200 10/300 GL; 25 mM HEPES pH 7.0, 200 mM NaCl.
In series [4] the target is T1, GST-BNTD (B subunit amino acids 1–78) (human, UniProt Q14181 1-78).
T1 construct: human DNA polymerase α B subunit, residues 1-78 (four-helix bundle N-terminal domain); also called GST-B(1–78); B N-terminal domain; source: E. coli Rosetta2(DE3), purified (Ni-NTA agarose)
T1 sequence (looked up): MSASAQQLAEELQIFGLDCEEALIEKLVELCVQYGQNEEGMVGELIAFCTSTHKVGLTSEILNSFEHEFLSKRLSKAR
Nature of the series: pull-down; MBP-AND-1 constructs bound to 100 µl amylose resin, 25 nmol GST-B added as prey; PD buffer, 2.5 mg/ml BSA, 4°C; eluted with 20 mM maltose; Coomassie. As to conditions: both partners purified.

Series [5] has as its target T2, GST-BNTD (1–78) A47E (human, UniProt Q14181 1-78, A47E).
T2 construct: human DNA polymerase α B subunit, residues 1-78; also called A47E mutant GST-BNTD; source: E. coli Rosetta2(DE3), purified (Ni-NTA agarose)
T2 sequence (looked up): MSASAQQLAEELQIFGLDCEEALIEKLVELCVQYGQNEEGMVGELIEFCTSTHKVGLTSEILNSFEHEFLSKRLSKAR
The series is described as above. As to conditions: both partners purified.

Series [6] deals with the molecule itself. Nature of the series: crystal structure; AND-1 329–826 crystallised at 9 mg/ml; space group F432, one protomer per asymmetric unit, trimer by crystallographic symmetry; 2.5 Å.
For series [7], the target named is T3, Pol α/primase, full-length heterotetrameric complex (Polα-B-PriS-PriL) (human, UniProt P09884 1-1462; Q14181 1-598; P49642 1-420; P49643 1-509).
T3 construct: human DNA polymerase α catalytic subunit, residues 1-1462; human DNA polymerase α B subunit, residues 1-598; human primase small subunit PriS, residues 1-420; human primase large subunit PriL, residues 1-509; The wording 'Double StrepII-tagged human DNA polymerase α (1–1462) and its B subunit (1–598)' leaves open whether the B subunit is tagged too; the tag is written on Pol α only; also called …
T3 sequence (P09884 whole entry, chain 1 of 3, the tested form may be a part): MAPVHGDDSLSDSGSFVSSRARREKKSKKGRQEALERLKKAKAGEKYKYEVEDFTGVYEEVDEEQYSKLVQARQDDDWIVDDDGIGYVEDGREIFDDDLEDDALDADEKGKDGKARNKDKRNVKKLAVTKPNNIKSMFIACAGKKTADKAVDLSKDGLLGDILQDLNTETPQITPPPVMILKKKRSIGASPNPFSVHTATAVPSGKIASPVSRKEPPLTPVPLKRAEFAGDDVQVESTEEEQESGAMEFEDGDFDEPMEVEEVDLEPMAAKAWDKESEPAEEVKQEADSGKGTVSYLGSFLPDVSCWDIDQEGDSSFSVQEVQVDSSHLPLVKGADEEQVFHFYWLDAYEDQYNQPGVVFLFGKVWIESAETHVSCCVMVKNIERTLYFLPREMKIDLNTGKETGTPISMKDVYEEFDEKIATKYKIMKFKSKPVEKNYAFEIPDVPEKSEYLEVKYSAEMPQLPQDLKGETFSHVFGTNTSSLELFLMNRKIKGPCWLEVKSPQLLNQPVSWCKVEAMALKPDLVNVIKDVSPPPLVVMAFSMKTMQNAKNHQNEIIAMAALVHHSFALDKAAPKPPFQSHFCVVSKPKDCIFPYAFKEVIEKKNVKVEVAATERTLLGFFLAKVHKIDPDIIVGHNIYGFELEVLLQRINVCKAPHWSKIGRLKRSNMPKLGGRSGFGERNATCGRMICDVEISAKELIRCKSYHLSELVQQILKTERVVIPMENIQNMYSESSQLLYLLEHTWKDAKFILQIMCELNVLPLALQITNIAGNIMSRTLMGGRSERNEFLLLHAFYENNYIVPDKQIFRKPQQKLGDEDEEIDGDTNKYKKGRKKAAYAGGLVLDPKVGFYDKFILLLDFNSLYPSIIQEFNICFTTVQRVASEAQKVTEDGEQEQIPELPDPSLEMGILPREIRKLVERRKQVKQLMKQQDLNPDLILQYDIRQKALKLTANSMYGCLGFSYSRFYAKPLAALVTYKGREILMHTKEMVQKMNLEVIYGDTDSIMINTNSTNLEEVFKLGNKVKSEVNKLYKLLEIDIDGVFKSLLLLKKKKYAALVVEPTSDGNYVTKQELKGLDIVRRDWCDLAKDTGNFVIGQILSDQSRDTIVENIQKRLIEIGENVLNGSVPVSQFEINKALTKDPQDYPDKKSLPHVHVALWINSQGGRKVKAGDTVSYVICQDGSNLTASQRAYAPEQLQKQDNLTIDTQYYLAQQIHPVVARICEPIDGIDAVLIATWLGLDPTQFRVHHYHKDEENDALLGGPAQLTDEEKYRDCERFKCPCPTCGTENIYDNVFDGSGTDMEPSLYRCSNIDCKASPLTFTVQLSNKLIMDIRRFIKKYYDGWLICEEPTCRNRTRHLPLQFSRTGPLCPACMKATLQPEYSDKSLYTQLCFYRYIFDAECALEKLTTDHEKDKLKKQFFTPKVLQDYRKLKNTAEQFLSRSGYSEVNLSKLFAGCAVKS
T3 sequence (P49642 whole entry, chain 3 of 3, the tested form may be a part): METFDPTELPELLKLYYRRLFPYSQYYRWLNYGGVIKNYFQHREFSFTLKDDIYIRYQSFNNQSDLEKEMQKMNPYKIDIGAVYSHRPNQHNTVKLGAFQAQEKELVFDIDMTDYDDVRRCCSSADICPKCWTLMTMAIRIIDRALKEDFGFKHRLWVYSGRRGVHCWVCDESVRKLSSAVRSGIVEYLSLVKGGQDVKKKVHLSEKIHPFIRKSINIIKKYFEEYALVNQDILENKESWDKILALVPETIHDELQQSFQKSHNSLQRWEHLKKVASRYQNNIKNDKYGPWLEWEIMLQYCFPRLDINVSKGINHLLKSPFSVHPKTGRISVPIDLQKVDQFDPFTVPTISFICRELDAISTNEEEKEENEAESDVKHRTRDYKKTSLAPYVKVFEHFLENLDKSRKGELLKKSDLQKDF
T3 sequence (P49643 whole entry, chain 4 of 3, the tested form may be a part): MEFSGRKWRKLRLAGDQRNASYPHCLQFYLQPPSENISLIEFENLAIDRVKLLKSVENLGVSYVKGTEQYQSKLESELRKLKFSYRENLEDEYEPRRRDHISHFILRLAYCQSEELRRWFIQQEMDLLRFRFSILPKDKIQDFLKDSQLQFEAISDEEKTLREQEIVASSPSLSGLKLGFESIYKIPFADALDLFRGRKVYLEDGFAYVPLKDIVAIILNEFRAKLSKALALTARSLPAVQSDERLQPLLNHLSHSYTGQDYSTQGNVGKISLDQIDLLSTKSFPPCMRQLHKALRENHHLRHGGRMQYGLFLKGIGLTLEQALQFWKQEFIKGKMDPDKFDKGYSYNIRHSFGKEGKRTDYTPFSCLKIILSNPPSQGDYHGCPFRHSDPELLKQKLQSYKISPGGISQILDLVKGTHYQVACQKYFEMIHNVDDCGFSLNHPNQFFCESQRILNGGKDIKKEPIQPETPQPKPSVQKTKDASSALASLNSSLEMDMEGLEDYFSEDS
Nature of the series: pull-down; StrepII-tagged Pol α/primase bound to 100 µl Strep-Tactin Superflow resin, about 2.4 nmol AND-1 added as prey; PD buffer (PBS, 5% glycerol, 0.5 mM TCEP, 0.2% Igepal), 2.5 mg/ml BSA, 4°C; eluted with 10 mM desthiobiotin; Coomassie and anti-His western blot. Conditions: both partners purified.

Here are results for 7 molecules from publication PMC5717350, “The human CTF4-orthologue AND-1 interacts with DNA polymerase α/primase via its unique C-terminal HMG box” (Open Biology, 2017).

B1: B (1–78), free BNTD used as competitor (domain or fragment, human, UniProt Q14181 1-78, looked up)
chain: MSASAQQLAEELQIFGLDCEEALIEKLVELCVQYGQNEEGMVGELIAFCTSTHKVGLTSEILNSFEHEFLSKRLSKAR
notes: human DNA polymerase α B subunit, residues 1-78; it names the protein 'B (1–78)' and 'free BNTD'; also called purified BNTD; source: E. coli Rosetta2(DE3), purified
Regarding B1, the binding result in series [1] was “binds”.

B2: GST-B subunit (1–156) (domain or fragment, human, UniProt Q14181 1-156, looked up)
chain: MSASAQQLAEELQIFGLDCEEALIEKLVELCVQYGQNEEGMVGELIAFCTSTHKVGLTSEILNSFEHEFLSKRLSKARHSTCKDSGHAGARDIVSIQELIEVEEEEEILLNSYTTPSKGSQKRAISTPETPLTKRSVSTRSPHQLLSPSSFSPSAT
notes: human DNA polymerase α B subunit, residues 1-156; also called GST-B fusion protein 1–156; source: E. coli Rosetta2(DE3), purified (Ni-NTA agarose)
For B2, in series [2], the binding result was “binds”.

B3: AND-1 SepB (336–826) (domain or fragment, human, UniProt O75717 336-826, looked up)
chain: GDFLNDNAVEIPSFSKGIINDDEDDEDLMMASGRPRQRSHILEDDENSVDISMLKTGSSLLKEEEEDGQEGSIHNLPLVTSQRPFYDGPMPTPRQKPFQSGSTPLHLTHRFMVWNSIGIIRCYNDEQDNAIDVEFHDTSIHHATHLSNTLNYTIADLSHEAILLACESTDELASKLHCLHFSSWDSSKEWIIDLPQNEDIEAICLGQGWAAAATSALLLRLFTIGGVQKEVFSLAGPVVSMAGHGEQLFIVYHRGTGFDGDQCLGVQLLELGKKKKQILHGDPLPLTRKSYLAWIGFSAEGTPCYVDSEGIVRMLNRGLGNTWTPICNTREHCKGKSDHYWVVGIHENPQQLRCIPCKGSRFPPTLPRPAVAILSFKLPYCQIATEKGQMEEQFWRSVIFHNHLDYLAKNGYEYEESTKNQATKEQQELLMKMLALSCKLEREFRCVELADLMTQNAVNLAIKYASRSRKLILAQKLSELAVEKAAELTAT
notes: source: E. coli Rosetta2(DE3), purified (Ni-NTA, Q-Sepharose, TEV cleavage, Superdex 200)
Turning to B3, the “stoichiometry N” value in series [3] was 3.

B4: MBP-tagged AND-1 HMG box (1017–1076), wild type (domain or fragment, human, UniProt O75717 1017-1076, looked up)
chain: RPKTGFQMWLEENRSNILSDNPDFSDEADIIKEGMIRFRVLSTEERKVWANKAKGETASE
notes: human AND-1 HMG box, residues 1017-1076; also called AND-1(1017–1076); source: E. coli Rosetta2(DE3), purified (Ni-NTA, Superdex 200)
Turning to B4, the binding result in series [4] and in series [5] was “binds” throughout.

B5: GST-B subunit (1–104) (domain or fragment, human, UniProt Q14181 1-104, looked up)
chain: MSASAQQLAEELQIFGLDCEEALIEKLVELCVQYGQNEEGMVGELIAFCTSTHKVGLTSEILNSFEHEFLSKRLSKARHSTCKDSGHAGARDIVSIQELIEVEE
notes: human DNA polymerase α B subunit, residues 1-104; also called GST-B fusion protein 1–104; source: E. coli Rosetta2(DE3), purified (Ni-NTA agarose)
For the molecule B5, the binding result in series [2] is recorded as “binds”.

B6: AND-1 (329–826), SepB domain (domain or fragment, human, UniProt O75717 329-826, looked up)
chain: GDDMSNAGDFLNDNAVEIPSFSKGIINDDEDDEDLMMASGRPRQRSHILEDDENSVDISMLKTGSSLLKEEEEDGQEGSIHNLPLVTSQRPFYDGPMPTPRQKPFQSGSTPLHLTHRFMVWNSIGIIRCYNDEQDNAIDVEFHDTSIHHATHLSNTLNYTIADLSHEAILLACESTDELASKLHCLHFSSWDSSKEWIIDLPQNEDIEAICLGQGWAAAATSALLLRLFTIGGVQKEVFSLAGPVVSMAGHGEQLFIVYHRGTGFDGDQCLGVQLLELGKKKKQILHGDPLPLTRKSYLAWIGFSAEGTPCYVDSEGIVRMLNRGLGNTWTPICNTREHCKGKSDHYWVVGIHENPQQLRCIPCKGSRFPPTLPRPAVAILSFKLPYCQIATEKGQMEEQFWRSVIFHNHLDYLAKNGYEYEESTKNQATKEQQELLMKMLALSCKLEREFRCVELADLMTQNAVNLAIKYASRSRKLILAQKLSELAVEKAAELTAT
notes: human AND-1, residues 329-826 (SepB domain); residues 329-420 and 824-826 not in the final crystallographic model; Trimer arises from crystallographic symmetry (one protomer per asymmetric unit); also called AND-1 SepB
Regarding B6, in series [6], the binding result is “binds”. In the case of B7, in series [7], the binding result was “binds”.
